The target of the experiment is type I collagen. Nature of the experiment: cell-based or functional assay.

elastin displayed an unbound DNA in DNA binding assay (1:1 elastin to collagen) of 0.077 µM and an unbound DNA in DNA binding assay (1:2 elastin to collagen) of 0.116 µM.

Source of the values: US20240026334A1.
